Assay results published in US20120195879A1.
No end group written: not given here.

B1: aDNP 3A1 antibody (hybridoma) (antibody, human IgG2, kappa, V domains shown)
VH: QVQLQESGPGLVKPSETLSLTCTVSGGSISHYYWSWIRQPPGKGLGWIGYIYYSGSTNYNPSLKSRVTISVDTSKNQFSLKLTSVTAADTAVYYCARARGDGYNYPDAFDIWGQGTMVTVSS
VL: DIQMTQSPSSVSASVGDRVTITCRASQGISNWLAWYQRKPGKAPKLLIYAASSLQSGVPSRFSGSGSGTDFTLTISSLQPEDFAAYYCQQASSFPWTFGQGTRVEIKR
B2: aDNP 3B1 antibody (hybridoma) (antibody, human IgG2, kappa, V domains shown)
VH: QVQLQESGPGLVKPSETLSLTCTVSGGSISSYYWSWIRQPPGKGLEWIGYIYYSGNTNSNPSLKSRVTISVDTSKNQFSLKLSSVTAADTAVYYCARTYYDSSGYYYRAFDIWGQGTMVTVSS
VL: DIQMTQSPSSLSASEGDRVTITCRASQGIRNDLGWYQQKPGKAPKRLIYAASSLQSGVPLRFSGSGSGTEFTLTISSLQPEDFATYYCLQYNSYPWTFGQGTKVEIKR
B3: aDNP 3B1 antibody (recombinant, IgG2) (antibody, V domains shown)
VH: B2 VH
VL: B2 VL

Columns and labels:
[1] = target: human Kv1.1 (human) (UniProt Q09470); experiment: cell-based or functional assay
Chain of human Kv1.1 (human) (Q09470 whole entry): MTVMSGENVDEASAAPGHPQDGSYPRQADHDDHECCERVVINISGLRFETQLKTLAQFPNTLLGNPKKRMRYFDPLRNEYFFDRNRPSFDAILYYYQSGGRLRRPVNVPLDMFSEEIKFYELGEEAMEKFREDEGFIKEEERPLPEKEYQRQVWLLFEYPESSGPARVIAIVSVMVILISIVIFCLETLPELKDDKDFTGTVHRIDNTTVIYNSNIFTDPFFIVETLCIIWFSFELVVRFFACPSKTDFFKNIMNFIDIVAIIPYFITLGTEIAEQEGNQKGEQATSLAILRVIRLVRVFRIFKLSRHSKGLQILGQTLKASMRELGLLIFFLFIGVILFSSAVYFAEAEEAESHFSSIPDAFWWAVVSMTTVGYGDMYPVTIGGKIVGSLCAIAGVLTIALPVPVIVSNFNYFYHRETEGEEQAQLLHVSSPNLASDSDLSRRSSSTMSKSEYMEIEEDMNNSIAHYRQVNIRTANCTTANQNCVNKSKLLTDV

[2] = target: human Kv1.3 (human) (UniProt P22001); experiment: cell-based or functional assay
Chain of human Kv1.3 (human) (P22001 whole entry): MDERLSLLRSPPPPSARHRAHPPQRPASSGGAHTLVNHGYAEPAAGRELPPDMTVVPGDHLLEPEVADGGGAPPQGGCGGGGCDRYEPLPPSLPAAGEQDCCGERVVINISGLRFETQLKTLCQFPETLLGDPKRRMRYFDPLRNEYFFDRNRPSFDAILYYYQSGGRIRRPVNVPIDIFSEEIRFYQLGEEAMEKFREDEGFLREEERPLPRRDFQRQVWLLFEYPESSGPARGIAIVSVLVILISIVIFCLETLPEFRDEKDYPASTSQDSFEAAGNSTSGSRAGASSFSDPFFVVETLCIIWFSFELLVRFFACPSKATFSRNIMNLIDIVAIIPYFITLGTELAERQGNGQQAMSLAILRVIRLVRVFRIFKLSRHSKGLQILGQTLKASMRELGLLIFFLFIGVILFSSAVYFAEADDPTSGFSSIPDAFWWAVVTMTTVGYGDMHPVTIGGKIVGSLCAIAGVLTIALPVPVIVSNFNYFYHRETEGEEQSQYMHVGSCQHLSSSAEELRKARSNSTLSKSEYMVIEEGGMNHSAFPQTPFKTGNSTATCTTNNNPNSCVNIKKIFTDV

[3] = target: DNP(3)-BSA (bovine); experiment: SPR (BIAcore 2000), antibody captured on anti-human IgG Fc surface, DNP-BSA injected; apparent constants
Chain of DNP(3)-BSA (bovine) (P02769 25-607 limits assumed, form in doubt): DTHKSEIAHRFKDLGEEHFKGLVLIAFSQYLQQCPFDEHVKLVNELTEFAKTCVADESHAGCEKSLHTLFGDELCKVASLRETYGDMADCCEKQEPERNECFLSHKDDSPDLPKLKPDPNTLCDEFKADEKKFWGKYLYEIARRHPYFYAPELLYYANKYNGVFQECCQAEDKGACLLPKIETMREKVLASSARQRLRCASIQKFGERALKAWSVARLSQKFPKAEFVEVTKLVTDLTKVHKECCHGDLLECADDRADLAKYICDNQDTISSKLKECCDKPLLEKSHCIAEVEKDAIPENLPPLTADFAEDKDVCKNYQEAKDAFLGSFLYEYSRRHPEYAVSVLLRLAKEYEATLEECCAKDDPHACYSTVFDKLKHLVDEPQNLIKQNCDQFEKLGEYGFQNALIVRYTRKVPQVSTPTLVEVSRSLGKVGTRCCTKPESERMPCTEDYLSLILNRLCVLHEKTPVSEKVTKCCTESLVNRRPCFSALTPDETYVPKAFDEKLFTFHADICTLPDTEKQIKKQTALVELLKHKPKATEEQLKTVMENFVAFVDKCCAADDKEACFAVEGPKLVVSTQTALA

[4] = target: DNP(31)-BSA (bovine) (UniProt P02769); experiment: as above
Chain of DNP(31)-BSA (bovine) (P02769 25-607 limits assumed, form in doubt): as above

| Binder | Kv1.1 (PX) IC50 [1] | Kv1.1/Kv1.3 Selectivity Ratio by PX [2] | Kv1.3 (PX) IC50 [2] | Potency Relative to ShK (WB, IL2) [2] | Kd [3] | koff [3] | kon [3] | Kd [4] | koff [4] | kon [4] |
| --- | --- | --- | --- | --- | --- | --- | --- | --- | --- | --- |
| Fc-GGGGSGGGGSRSCIDTIPKSRCTAFQCKHSMKYRLSFCRKTCGTC (Fc fusion, ends and bridges not checked; also: homodimer via Fc) [Bivalent Fc-L10-ShK[1-35] homodimer] | 0.067 nM | 4.47 | 0.015 nM | 5.76 | – | – | – | – | – | – |
| Fc-GGGGSGGGGSSCIDTIPKSRCTAFQCKHSMKYRLSFCRKTCGTC (Fc fusion, ends and bridges not checked; also: homodimer via Fc) [Bivalent Fc-L10-ShK[2-35] homodimer] | 0.411 nM | 3.54 | 0.116 nM | 8.73 | – | – | – | – | – | – |
| B1 | – | – | – | – | 526 nM | 0.00065 s⁻¹ | 1200 M⁻¹ s⁻¹ | 9 nM | 0.00031 s⁻¹ | 34000 M⁻¹ s⁻¹ |
| B2 | – | – | – | – | 3 nM | 0.00036 s⁻¹ | 140000 M⁻¹ s⁻¹ | 0.2 nM | 5.8e-05 s⁻¹ | 370000 M⁻¹ s⁻¹ |
| B3 | – | – | – | – | – | – | – | 0.7 nM | 0.00031 s⁻¹ | 420000 M⁻¹ s⁻¹ |
